Key:
[1] = test system: chicken Red Blood cells (RBC); assay: QS21 lytic activity, haemolysis assay (limit test); type: cell-based; conditions: example curve; OD of 0.12
Experimental: QS21 is known to lyse red blood cells (RBC).
QS21 lytic activity was measured by a haemolysis assay using chicken Red Blood cells (RBC). RBC were centrifuged at 550 g at 4° C. Supernatant was discarded. The pellet was carefully resuspended in PBS buffer to reach the initial volume and the same operation was repeated until supernatant was no longer red (generally 3 times). The pellet was stored at 4° C. for 3 to 4 days maximum if not used directly (and washed again the day it is used) or was diluted around 10 times in buffer if used the same day.
A QS21 dose range curve was prepared in ASA buffer (in salt or in sorbitol buffer following the ASA sample tested) extemporaneously and the adjuvant samples (containing a 50 μg or 90 μg equivalent of QS21 meaning the equivalent of 500 μl or 900 μl ASA) were prepared. Final volume was adjusted to 900 μl in standards and samples with adequate buffer (containing or not sorbitol as a function of the buffer of the sample tested). Due to its opalescence, ASA interferes in optical density (OD). […] Optical density at 540 nm was measured after centrifugation. […]
1. Limit of detection (LOD) was defined as the lowest concentration of QS21 leading to an OD: • Higher than the base level (OD>0.1) • Around three times higher than OD's buffer (the “o μg” QS21) • In the ascendant part of the curve • Determined for each test. […]

[2] = Salting out / precipitation of antigen on reconstitution in adjuvant buffer (visual); type: physicochemical
Experimental: Accordingly, in one embodiment the antigen or antigenic preparation is any antigen which precipitates, coagulates or aggregates after being dissolved in a solution comprising a concentration of sodium chloride (NaCl) or wherein the ionic strength of the solution is greater than 5 mM, 10 mM, 15 mM, 20 mM, 30 mM, 40 mM, 50 mM, 60 mM, 70 mM, 80 mM, 90 mM or 100 mM. The person skilled in the art can determine whether an antigen meets this definition by dissolving and/or mixing an antigen in such a solution. […] An antigen which precipitates, coagulates or aggregates after being dissolved in a solution comprising a concentration of sodium chloride of 100 mM is one which, after 24 hours or less, can be seen to be precipitating by the cloudiness of the solution. In addition, aggregation that is not detectable visually may be observed using methods known to the skilled person which include, but are not limited to SEC-HPLC.
The resulting lyophilsation cake was reconstituted with 625 μl of aqueous adjuvant composition prepared as in Example 2 comprising 150 mM NaCl. The lyophilsation cake contained a 1.25 fold excess of antigen dose to have the right antigen/adjuvant ratio after reconstitution with a final composition of 16 mM Tris, 4 mM borate, 4% sucrose, 0.24% Poloxamer 188, 840 μg/ml CpG and 1000 μg/ml PRAME.
The resulting lyophilsation cake was reconstituted with 625 μl of ASA buffers (150 mM NaCl and sorbitol).
1. PRAME antigen reconstituted in ASA 150 mM NaCl buffer. 2. PRAME antigen reconstituted in ASA sorbitol buffer. 3. NYESO-1 antigen reconstituted in ASA 150 mM NaCl buffer. 4. NYESO-1 antigen reconstituted in ASA sorbitol buffer.
FIG. 4 is a photographic comparison between PRAME and NYESO-1 reconstituted in ASA (150 mM NaCl) and ASA (sorbitol). […] Similarly, NY-ESO reconstituted in ASA (150 mM NaCl) appears cloudy compared to NY-ESO antigen reconstituted in ASA (sorbitol).

Row | Substance | Limit of Detection (lowest concentration of QS21 leading to OD above base level) [1] [µg] | appearance after reconstitution ([2]; lyophilised with CpG, reconstituted in ASA (150 mM NaCl), compared to ASA (sorbitol), FIG. 4) | salting out in adjuvant composition ([2]; salt concentration reduced to 5 mM and sorbitol included (ASA sorbitol buffer), FIG. 4) | concentration of sodium chloride at which the antigens aggregate and precipitate ([2]; salting out, as low as) [µM]
1 | QS21 | 0.9 | – | – | –
2 | PRAME: tumour protein antigen, described in U.S. Pat. No. 5,830,753; co-lyophilised with CpG 2006 in the examples | – | cloudy | prevents “salting out” | 150000

From patent publication US20120093921A1, “IMMUNOGENIC COMPOSITIONS HAVING LOW SODIUM CHLORIDE CONCENTRATION” (GLAXOSMITHKLINE BIOLOGICALS S.A., priority 2009, published 2012)
